Target: wasp_human WAS (UniProt P42768)
Sequence (P42768 whole entry): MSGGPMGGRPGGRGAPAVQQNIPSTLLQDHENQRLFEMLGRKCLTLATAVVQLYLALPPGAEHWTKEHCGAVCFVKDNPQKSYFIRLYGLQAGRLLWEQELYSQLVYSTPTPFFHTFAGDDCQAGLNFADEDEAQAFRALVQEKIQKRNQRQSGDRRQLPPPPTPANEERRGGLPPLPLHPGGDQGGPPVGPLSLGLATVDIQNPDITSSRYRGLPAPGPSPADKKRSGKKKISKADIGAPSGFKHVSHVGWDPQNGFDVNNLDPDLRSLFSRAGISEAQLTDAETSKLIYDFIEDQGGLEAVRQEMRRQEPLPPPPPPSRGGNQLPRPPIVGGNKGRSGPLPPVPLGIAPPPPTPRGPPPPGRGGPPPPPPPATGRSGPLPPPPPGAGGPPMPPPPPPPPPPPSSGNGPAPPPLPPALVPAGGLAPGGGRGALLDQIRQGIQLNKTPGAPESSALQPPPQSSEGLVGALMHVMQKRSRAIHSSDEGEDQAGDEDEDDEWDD

Sequence of Cell division control protein 42 homolog (Homo sapiens), P60953 Y40C (P60953 whole entry Y40C): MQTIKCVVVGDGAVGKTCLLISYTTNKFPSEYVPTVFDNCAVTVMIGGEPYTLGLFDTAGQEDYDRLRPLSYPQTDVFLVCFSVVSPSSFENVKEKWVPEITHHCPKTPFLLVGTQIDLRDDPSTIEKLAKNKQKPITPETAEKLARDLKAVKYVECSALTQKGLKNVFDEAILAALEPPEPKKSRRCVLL

Cell division control protein 42 homolog (Homo sapiens), P60953 Y40C
effect of a mutation on the interaction: disrupting interaction

From IntAct's records for PubMed 9422512
